{"source": "patent US20130252257A1", "about": "“QUANTIFICATION OF CIRCULATING STEM AND PROGENITOR CELLS AS A MEANS OF ASSESSING EFFICACY OF NATUROPATHIC INTERVENTIONS” (Creative Medical Health, Inc., priority 2011, published 2013)", "origin": "cited, not measured here", "molecules": {"B1": {"name": "G-CSF: Granulocyte colony stimulating factor, used clinically for mobilization of hematopoietic stem cells (protein, UniProt P09919 31-207, looked up)", "Granulocyte …": "TPLGPASSLPQSFLLKCLEQVRKIQGDGAALQEKLVSECATYKLCHPEELVLLGHSLGIPWAPLSSCPSQALQLAGCLSQLHSGLFLYQGLLQALEGISPELGPTLDTLQLDVADFATTIWQQMEELGMAPALQPTQGAMPAFASAFQRRAGGVLVASHLQSFLEVSYRVLRHLAQP"}}, "key": {"[1]": {"test_system": "endothelial responsiveness"}, "circulating EPC": {"test_system": "circulating EPC", "conditions": "in vivo"}, "[2]": {"test_system": "endothelial progenitor cells (EPC)", "conditions": "in addition to mobilizing HSC"}, "myocardial infarct": {"test_system": "myocardial infarct", "conditions": "114 patients, 56 treated and 58 control"}, "large anterior wall AMI": {"test_system": "large anterior wall AMI", "conditions": "41 patients with large anterior wall AMI"}, "[3]": {"test_system": "ST-elevation myocardial infarction", "conditions": "6 days of G-CSF at 10 μg/kg"}}, "note": "Like-named read-outs stand apart in the source and are kept apart here.", "data": [{"molecule": "growth hormone: growth hormone, used in antiaging medicine; clinically-applicable mobilizer", "values": [{"measurement": "endothelial responsiveness", "setting": "[1]; healthy volunteers", "value": "improve endothelial responsiveness"}, {"measurement": "endothelial responsiveness", "setting": "[1]; patients with congestive heart failure", "value": "improve endothelial responsiveness"}]}, {"molecule": "CC(C)c1nc(N(C)S(C)(=O)=O)nc(-c2ccc(F)cc2)c1/C=C/[C@@H](O)C[C@@H](O)CC(=O)O", "note": "[Crestor]", "values": [{"measurement": "circulating EPC levels", "setting": "circulating EPC", "value": "increase circulating EPC levels"}]}, {"molecule": "B1", "values": [{"measurement": "mobilization of EPC", "setting": "[2]", "value": "stimulates mobilization of EPC"}, {"measurement": "infarct size, left ventricular function, or coronary restenosis", "setting": "myocardial infarct", "value": "no influence"}, {"measurement": "left ventricle ejection fraction (LVEF)", "setting": "large anterior wall AMI", "value": "improvement"}, {"measurement": "pathological remodeling", "setting": "large anterior wall AMI", "value": "diminished pathological remodeling"}, {"measurement": "ejection fraction", "setting": "[3]; in comparison to controls", "value": "Statistically significant improvements"}, {"measurement": "pathological remodeling", "setting": "[3]; in comparison to controls", "value": "inhibition of pathological remodeling"}, {"measurement": "myocardial wall at the area of infarct", "setting": "[3]; four months after infarct, versus controls, sustained over a year", "value": "thicker myocardial wall"}]}]}
